Data on 17 molecules can be found in patent US20240209076A1 (KODIAK SCIENCES, published 2024).

B1: anti-IL-6 antibody, light chain Y48W (heavy chain WT) (antibody, V domains shown)
VH: EVQLVESGGGLVQPGGSLRLSCAASGFTFSPFAMSWVRQAPGKGLEWVAKISPGGSWTYYSDTVTGRFTFSLDTSKSTAYLQMNSLRAEDTAVYYCARQLWGYYALDIWGQGTLVTVSS
VL: DIQLTQSPSSLSASVGDRVTITCSASISVSYMYWYQQKPGKAPKLLIWDMSNLASGVPSRFSGSGSGTDFTLTISSLQPEDFATYYCMQWSGYPYTFGQGTKVEIK
notes: See note of m2; also called WT / Y48W
B2: anti-IL-6 antibody, light chain S51D (heavy chain WT) (antibody, V domains shown)
VH: EVQLVESGGGLVQPGGSLRLSCAASGFTFSPFAMSWVRQAPGKGLEWVAKISPGGSWTYYSDTVTGRFTFSLDTSKSTAYLQMNSLRAEDTAVYYCARQLWGYYALDIWGQGTLVTVSS
VL: DIQLTQSPSSLSASVGDRVTITCSASISVSYMYWYQQKPGKAPKLLIYDMDNLASGVPSRFSGSGSGTDFTLTISSLQPEDFATYYCMQWSGYPYTFGQGTKVEIK
notes: See note of m2; also called WT / S51D
B3: anti-IL-6 antibody, light chain S30G (heavy chain WT) (antibody, V domains shown)
VH: EVQLVESGGGLVQPGGSLRLSCAASGFTFSPFAMSWVRQAPGKGLEWVAKISPGGSWTYYSDTVTGRFTFSLDTSKSTAYLQMNSLRAEDTAVYYCARQLWGYYALDIWGQGTLVTVSS
VL: DIQLTQSPSSLSASVGDRVTITCSASISVGYMYWYQQKPGKAPKLLIYDMSNLASGVPSRFSGSGSGTDFTLTISSLQPEDFATYYCMQWSGYPYTFGQGTKVEIK
notes: See note of m2; also called WT / S30G
B4: anti-IL-6 antibody, light chain Y31F (heavy chain WT) (antibody, V domains shown)
VH: EVQLVESGGGLVQPGGSLRLSCAASGFTFSPFAMSWVRQAPGKGLEWVAKISPGGSWTYYSDTVTGRFTFSLDTSKSTAYLQMNSLRAEDTAVYYCARQLWGYYALDIWGQGTLVTVSS
VL: DIQLTQSPSSLSASVGDRVTITCSASISVSFMYWYQQKPGKAPKLLIYDMSNLASGVPSRFSGSGSGTDFTLTISSLQPEDFATYYCMQWSGYPYTFGQGTKVEIK
notes: See note of m2; also called WT / Y31F
B5: anti-IL-6 antibody, light chain V29L (heavy chain WT) (antibody, V domains shown)
VH: EVQLVESGGGLVQPGGSLRLSCAASGFTFSPFAMSWVRQAPGKGLEWVAKISPGGSWTYYSDTVTGRFTFSLDTSKSTAYLQMNSLRAEDTAVYYCARQLWGYYALDIWGQGTLVTVSS
VL: DIQLTQSPSSLSASVGDRVTITCSASISLSYMYWYQQKPGKAPKLLIYDMSNLASGVPSRFSGSGSGTDFTLTISSLQPEDFATYYCMQWSGYPYTFGQGTKVEIK
notes: See note of m2; also called WT / V29L
B6: anti-IL-6 antibody, light chain S91A (heavy chain WT) (antibody, V domains shown)
VH: EVQLVESGGGLVQPGGSLRLSCAASGFTFSPFAMSWVRQAPGKGLEWVAKISPGGSWTYYSDTVTGRFTFSLDTSKSTAYLQMNSLRAEDTAVYYCARQLWGYYALDIWGQGTLVTVSS
VL: DIQLTQSPSSLSASVGDRVTITCSASISVSYMYWYQQKPGKAPKLLIYDMSNLASGVPSRFSGSGSGTDFTLTISSLQPEDFATYYCMQWAGYPYTFGQGTKVEIK
notes: See note of m2; also called WT / S91A
B7: anti-IL-6 antibody, light chain S51K (heavy chain WT) (antibody, V domains shown)
VH: EVQLVESGGGLVQPGGSLRLSCAASGFTFSPFAMSWVRQAPGKGLEWVAKISPGGSWTYYSDTVTGRFTFSLDTSKSTAYLQMNSLRAEDTAVYYCARQLWGYYALDIWGQGTLVTVSS
VL: DIQLTQSPSSLSASVGDRVTITCSASISVSYMYWYQQKPGKAPKLLIYDMKNLASGVPSRFSGSGSGTDFTLTISSLQPEDFATYYCMQWSGYPYTFGQGTKVEIK
notes: See note of m2; also called WT / S51K
B8: anti-IL-6 antibody, light chain Y31G (heavy chain WT) (antibody, V domains shown)
VH: EVQLVESGGGLVQPGGSLRLSCAASGFTFSPFAMSWVRQAPGKGLEWVAKISPGGSWTYYSDTVTGRFTFSLDTSKSTAYLQMNSLRAEDTAVYYCARQLWGYYALDIWGQGTLVTVSS
VL: DIQLTQSPSSLSASVGDRVTITCSASISVSGMYWYQQKPGKAPKLLIYDMSNLASGVPSRFSGSGSGTDFTLTISSLQPEDFATYYCMQWSGYPYTFGQGTKVEIK
notes: See note of m2; also called WT / Y31G
B9: anti-IL-6 antibody, light chain Y95I (heavy chain WT) (antibody, V domains shown)
VH: EVQLVESGGGLVQPGGSLRLSCAASGFTFSPFAMSWVRQAPGKGLEWVAKISPGGSWTYYSDTVTGRFTFSLDTSKSTAYLQMNSLRAEDTAVYYCARQLWGYYALDIWGQGTLVTVSS
VL: DIQLTQSPSSLSASVGDRVTITCSASISVSYMYWYQQKPGKAPKLLIYDMSNLASGVPSRFSGSGSGTDFTLTISSLQPEDFATYYCMQWSGYPITFGQGTKVEIK
notes: See note of m2; also called WT / Y95I
B10: anti-IL-6 antibody, light chain S55R (heavy chain WT) (antibody, V domains shown)
VH: EVQLVESGGGLVQPGGSLRLSCAASGFTFSPFAMSWVRQAPGKGLEWVAKISPGGSWTYYSDTVTGRFTFSLDTSKSTAYLQMNSLRAEDTAVYYCARQLWGYYALDIWGQGTLVTVSS
VL: DIQLTQSPSSLSASVGDRVTITCSASISVSYMYWYQQKPGKAPKLLIYDMSNLARGVPSRFSGSGSGTDFTLTISSLQPEDFATYYCMQWSGYPYTFGQGTKVEIK
notes: See note of m2; also called WT / S55R
B11: anti-IL-6 antibody, light chain S30A (heavy chain WT) (antibody, V domains shown)
VH: EVQLVESGGGLVQPGGSLRLSCAASGFTFSPFAMSWVRQAPGKGLEWVAKISPGGSWTYYSDTVTGRFTFSLDTSKSTAYLQMNSLRAEDTAVYYCARQLWGYYALDIWGQGTLVTVSS
VL: DIQLTQSPSSLSASVGDRVTITCSASISVAYMYWYQQKPGKAPKLLIYDMSNLASGVPSRFSGSGSGTDFTLTISSLQPEDFATYYCMQWSGYPYTFGQGTKVEIK
notes: See note of m2; also called WT / S30A
B12: anti-IL-6 antibody, light chain S55L (heavy chain WT) (antibody, V domains shown)
VH: EVQLVESGGGLVQPGGSLRLSCAASGFTFSPFAMSWVRQAPGKGLEWVAKISPGGSWTYYSDTVTGRFTFSLDTSKSTAYLQMNSLRAEDTAVYYCARQLWGYYALDIWGQGTLVTVSS
VL: DIQLTQSPSSLSASVGDRVTITCSASISVSYMYWYQQKPGKAPKLLIYDMSNLALGVPSRFSGSGSGTDFTLTISSLQPEDFATYYCMQWSGYPYTFGQGTKVEIK
notes: See note of m2; also called WT / S55L
B13: anti-IL-6 antibody, light chain Y95G (heavy chain WT) (antibody, V domains shown)
VH: EVQLVESGGGLVQPGGSLRLSCAASGFTFSPFAMSWVRQAPGKGLEWVAKISPGGSWTYYSDTVTGRFTFSLDTSKSTAYLQMNSLRAEDTAVYYCARQLWGYYALDIWGQGTLVTVSS
VL: DIQLTQSPSSLSASVGDRVTITCSASISVSYMYWYQQKPGKAPKLLIYDMSNLASGVPSRFSGSGSGTDFTLTISSLQPEDFATYYCMQWSGYPGTFGQGTKVEIK
notes: See note of m2; also called WT / Y95G
B14: anti-IL-6 antibody, light chain S51R (heavy chain WT) (antibody, V domains shown)
VH: EVQLVESGGGLVQPGGSLRLSCAASGFTFSPFAMSWVRQAPGKGLEWVAKISPGGSWTYYSDTVTGRFTFSLDTSKSTAYLQMNSLRAEDTAVYYCARQLWGYYALDIWGQGTLVTVSS
VL: DIQLTQSPSSLSASVGDRVTITCSASISVSYMYWYQQKPGKAPKLLIYDMRNLASGVPSRFSGSGSGTDFTLTISSLQPEDFATYYCMQWSGYPYTFGQGTKVEIK
notes: See note of m2; also called WT / S51R
B15: anti-IL-6 antibody, light chain S55W (heavy chain WT) (antibody, V domains shown)
VH: EVQLVESGGGLVQPGGSLRLSCAASGFTFSPFAMSWVRQAPGKGLEWVAKISPGGSWTYYSDTVTGRFTFSLDTSKSTAYLQMNSLRAEDTAVYYCARQLWGYYALDIWGQGTLVTVSS
VL: DIQLTQSPSSLSASVGDRVTITCSASISVSYMYWYQQKPGKAPKLLIYDMSNLAWGVPSRFSGSGSGTDFTLTISSLQPEDFATYYCMQWSGYPYTFGQGTKVEIK
notes: See note of m2; also called WT / S55W
B16: anti-IL-6 antibody, light chain S55Y (heavy chain WT) (antibody, V domains shown)
VH: EVQLVESGGGLVQPGGSLRLSCAASGFTFSPFAMSWVRQAPGKGLEWVAKISPGGSWTYYSDTVTGRFTFSLDTSKSTAYLQMNSLRAEDTAVYYCARQLWGYYALDIWGQGTLVTVSS
VL: DIQLTQSPSSLSASVGDRVTITCSASISVSYMYWYQQKPGKAPKLLIYDMSNLAYGVPSRFSGSGSGTDFTLTISSLQPEDFATYYCMQWSGYPYTFGQGTKVEIK
notes: See note of m2; also called WT / S55Y
B17: anti-IL-6 antibody, parent sequence (heavy chain WT, light chain WT) (antibody, V domains shown)
VH: EVQLVESGGGLVQPGGSLRLSCAASGFTFSPFAMSWVRQAPGKGLEWVAKISPGGSWTYYSDTVTGRFTFSLDTSKSTAYLQMNSLRAEDTAVYYCARQLWGYYALDIWGQGTLVTVSS
VL: DIQLTQSPSSLSASVGDRVTITCSASISVSYMYWYQQKPGKAPKLLIYDMSNLASGVPSRFSGSGSGTDFTLTISSLQPEDFATYYCMQWSGYPYTFGQGTKVEIK
notes: Tested as full antibody from Expi293 cells in an engineered human IgG1 framework (L234A, L235A, G237A, L443C, EU); also called wild-type; parent molecule

The target of the first assay is T1, recombinant human IL-6 (human, UniProt P05231 30-212).
T1 construct: Bought protein
In words: SPR Biacore, supernatant Ab on Protein A chip, IL-6 analyte, 25 C. As for the experimental part:
(§1) Antibodies were captured on a Protein A chip (GE) by injecting 1:20 dilution of cell supernatant at 10 μL/min for 60 seconds. […] The sensor chip was regenerated by a 60 seconds injection of 10 mM Glycine pH 1.7 at flow rate of 50 μL/min. […] For this setup, 1 μg/mL of purified antibody was injected over a Protein A chip at 10 μL/min for 25-28 seconds. Data analysis for supernatant and purified samples were performed using BIAevaluation software (GE). All sensorgrams were double reference subtracted and fit using a 1:1 Langmuir binding model.
T1 sequence (P05231 30-212 limits assumed): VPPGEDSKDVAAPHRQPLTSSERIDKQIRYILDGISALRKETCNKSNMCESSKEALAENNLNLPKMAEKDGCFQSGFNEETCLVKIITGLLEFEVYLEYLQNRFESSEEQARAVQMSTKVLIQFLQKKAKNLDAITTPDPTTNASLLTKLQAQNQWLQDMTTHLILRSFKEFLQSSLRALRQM
On to B1, for which the Kd came out at 0.356 nM, the off-rate (koff) was determined as 0.000123 s⁻¹ and the kon was determined as 345000 M⁻¹ s⁻¹.

As to B2, the Kd was determined as 0.296 nM, the koff was determined as 0.000216 s⁻¹ and the kon turned out to be 729000 M⁻¹ s⁻¹.

For B3, the Kd turned out to be 0.316 nM, the koff stood at 0.000173 s⁻¹ and the kon stood at 548000 M⁻¹ s⁻¹.

With B4, the Kd was found to be 0.472 nM, the koff worked out at 0.000138 s⁻¹ and the kon stood at 292000 M⁻¹ s⁻¹.

As to B5, the Kd came to 0.487 nM, the koff came out at 0.000171 s⁻¹ and the kon amounted to 351000 M⁻¹ s⁻¹.

As for B6, the Kd came to 0.407 nM, the koff worked out at 0.000139 s⁻¹ and the kon stood at 341000 M⁻¹ s⁻¹.

In the case of B7, the Kd worked out at 0.535 nM, the koff was found to be 0.000212 s⁻¹ and the kon came out at 396000 M⁻¹ s⁻¹.

B8: the Kd is 0.666 nM, the koff is 0.000203 s⁻¹ and the kon was 305000 M⁻¹ s⁻¹.

For B9, the Kd is 7.48 nM, the koff came out at 0.00444 s⁻¹ and the kon was determined as 593000 M⁻¹ s⁻¹.

On to B10, for which the Kd is 0.109 nM, the koff stood at 0.000107 s⁻¹ and the kon amounted to 987000 M⁻¹ s⁻¹.

For B11, the Kd came to 0.639 nM, the koff worked out at 0.000163 s⁻¹ and the kon amounted to 255000 M⁻¹ s⁻¹.

With B12, the Kd was determined as 0.329 nM, the koff is 0.00022 s⁻¹ and the kon is 668000 M⁻¹ s⁻¹.

For B13, the dissociation constant (Kd) amounted to 0.383 nM, the koff worked out at 0.000338 s⁻¹ and the kon is 882000 M⁻¹ s⁻¹.

Regarding B14, the Kd was found to be 0.463 nM, the koff was determined as 0.000231 s⁻¹ and the kon amounted to 499000 M⁻¹ s⁻¹.

Take B15: the equilibrium dissociation constant (Kd) worked out at 0.401 nM, the koff was found to be 0.000226 s⁻¹ and the kon is 563000 M⁻¹ s⁻¹.

In the case of B16, the Kd is 0.461 nM, the koff was 0.000201 s⁻¹ and the kon is 436000 M⁻¹ s⁻¹.

The next assay deals with T2, recombinant human IL-6 (human, UniProt P05231 30-212).
T2 construct: Flowed in solution over the captured antibodies
In words: SPR (Biacore), supernatant IgG on Protein A, 25 C. (In general: In SPR one partner is held on a chip, and binding of the other changes the refractive index at the surface.)
T2 sequence (P05231 30-212 limits assumed): as above
As to B17, the dissociation constant Kd was 0.399 nM, the koff is 0.000126 s⁻¹ and the kon is 315000 M⁻¹ s⁻¹.

Another assay deals with T2, recombinant human IL-6. In words: SPR (Biacore), purified IgG on Protein A, 37 C. As to the method:
as §1
As to B17, the dissociation constant (Kd) was found to be 0.158 nM, the koff was 0.000139 s⁻¹ and the kon came to 880000 M⁻¹ s⁻¹.

As usually defined, the Kd is the equilibrium constant for the complex coming apart. One may read the koff as the first-order rate constant of dissociation. As usually defined, the kon is the second-order rate constant of association.
